Laboratory results from publication doi:10.1101/2021.01.29.428852 (bioRxiv, 2021).

Target: LCMV clone 13 nucleocapsid protein (NP), purified recombinant (Lymphocytic choriomeningitis virus, …, UniProt P09992, strain)
Assay: ELISA

B1: most expanded antibody variant of the NP-specific, second most expanded IgG clone (antibody, V domains shown)
VH: EVQLQQSGPELVKPGASVKMSCKASGYTFTDYNMHWVKQSHGKSLEWIGYINPNNGGTSYNQKFKGKATLTVNKSSSTAYMELRSLTSEDSAVYYCAREGGYWYFDVWGTGTTVTVSS
VL: DIVMTQSHKFMSTSVGDRVSITCKASQDVSTAVAWYQQKPGQSPKLLIYWASTRHTGVPDRFTGSGSGTDYTLTISSVQAEDLALYYCQQHYSTPFTFGSGTKLEIK
B1: binds.
